Data taken from publication PMC5378893 (Scientific Reports, 2015).

B1: GH2-61 IgG (antibody, V domains shown)
VH: EVQLVESGGGLVQPGGSLRLSCAASGFTINNWGIHWVRQAPGKGLEWVAGIWPYGGYTYYADSVKGRFTISADTSKNTAYLQMNSLRAEDTAVYYCARFYNHHGGVMDYWGQGTLVTVSS
VL: DIQMTQSPSSLSASVGDRVTITCRASQDVGSNVAWYQQKPGKAPKLLISWSTSLYSGVPSRFSGSGSGTDFTLTISSLQPEDFATYYCQQYGGWPITFGQGTKVEIK
notes: source: HEK293-F, transient transfection, purified (Protein A, Superdex 200)
B2: GH2-91 IgG (antibody, V domains shown)
VH: EVQLVESGGGLVQPGGSLRLSCAASGFTINNFGIHWVRQAPGKGLEWVASIGPFWGYTSYADSVKGRFTISADTSKNTAYLQMNSLRAEDTAVYYCARFGNDYDGVMDYWGQGTLVTVSS
VL: DIQMTQSPSSLSASVGDRVTITCRASHDVGWGVAWYQQKPGKAPKLLISWPTYLYSGVPSRFSGSGSGTDFTLTISSLQPEDFATYYCQQYFSYPITFGQGTKVEIK
notes: as for B1
B3: GH2-7 IgG (antibody, V domains shown)
VH: EVQLVESGGGLVQPGGSLRLSCAASGFTIDDYFIHWVRQAPGKGLEWVAGIGPSWGYTFYADSVKGRFTISADTSKNTAYLQMNSLRAEDTAVYYCARFGHNFVNGMDYWGQGTLVTVSS
VL: DIQMTQSPSSLSASVGDRVTITCRASQDVSGWVAWYQQKPGKAPKLLISGTAGLYSGVPSRFSGSGSGTDFTLTISSLQPEDFATYYCQQYYDFPVTFGQGTKVEIK
notes: as for B1
B4: GH2-65 IgG (antibody, V domains shown)
VH: EVQLVESGGGLVQPGGSLRLSCAASGFTIDDWGIHWVRQAPGKGLEWVAWIWPYWGYTFYADSVKGRFTISADTSKNTAYLQMNSLRAEDTAVYYCARFLDWNNNWMDYWGQGTLVTVSS
VL: DIQMTQSPSSLSASVGDRVTITCRASQDVSGWVAWYQQKPGKAPKLLISSASFLYSGVPSRFSGSGSGTDFTLTISSLQPEDFATYYCQQYYDFPVTFGQGTKVEIK
notes: as for B1
B5: GH2-78 IgG (antibody, V domains shown)
VH: EVQLVESGGGLVQPGGSLRLSCAASGFTINNWGIHWVRQAPGKGLEWVAGIGPYGGYTSYADSVKGRFTISADTSKNTAYLQMNSLRAEDTAVYYCARFGVIIDGIMDYWGQGTLVTVSS
VL: DIQMTQSPSSLSASVGDRVTITCRASQDVNNSVAWYQQKPGKAPKLLISWPTGLYSGVPSRFSGSGSGTDFTLTISSLQPEDFATYYCQQYYSWPITFGQGTKVEIK
notes: as for B1
B6: GH2-81 IgG (antibody, V domains shown)
VH: EVQLVESGGGLVQPGGSLRLSCAASGFTINDYGIHWVRQAPGKGLEWVAGIGPFGGYTSYADSVKGRFTISADTSKNTAYLQMNSLRAEDTAVYYCARFGVLFDGVMDYWGQGTLVTVSS
VL: DIQMTQSPSSLSASVGDRVTITCRASQDVNDGVAWYQQKPGKAPKLLISFTTGLYSGVPSRFSGSGSGTDFTLTISSLQPEDFATYYCQQYYNWPITFGQGTKVEIK
notes: as for B1
B7: GH2-66 IgG (antibody, V domains shown)
VH: EVQLVESGGGLVQPGGSLRLSCAASGFTIGNWGIHWVRQAPGKGLEWVAYIWPYWGFTYYADSVKGRFTISADTSKNTAYLQMNSLRAEDTAVYYCARFLDWNLLWMDYWGQGTLVTVSS
VL: DIQMTQSPSSLSASVGDRVTITCRASQDVYSYVAWYQQKPGKAPKLLISYASGLYSGVPSRFSGSGSGTDFTLTISSLQPEDFATYYCQQYYNSPITFGQGTKVEIK
notes: as for B1
B8: GH2-87 IgG (antibody, V domains shown)
VH: EVQLVESGGGLVQPGGSLRLSCAASGFTISSYGIHWVRQAPGKGLEWVAGIGPFGGFTSYADSVKGRFTISADTSKNTAYLQMNSLRAEDTAVYYCARFLNIHLGWMDYWGQGTLVTVSS
VL: DIQMTQSPSSLSASVGDRVTITCRASQDVNNSVAWYQQKPGKAPKLLIFGTRYLYSGVPSRFSGSGSGTDFTLTISSLQPEDFATYYCQQYYNYPLTFGQGTKVEIK
notes: as for B1
B9: GH2-72 IgG (antibody, V domains shown)
VH: EVQLVESGGGLVQPGGSLRLSCAASGFTISNGGIHWVRQAPGKGLEWVAYIWPSGGYTFYADSVKGRFTISADTSKNTAYLQMNSLRAEDTAVYYCARFFNNDWIGMDYWGQGTLVTVSS
VL: DIQMTQSPSSLSASVGDRVTITCRASQDVGYFVAWYQQKPGKAPKLLISGTTWLYSGVPSRFSGSGSGTDFTLTISSLQPEDFATYYCQQYSNWPLTFGQGTKVEIK
notes: as for B1
B10: A21 (positive control IgG) (antibody, V domains shown)
VH: EVQLQQSGPEVVKTGASVKISCKASGYSFTGYFINWVKKNSGKSPEWIGHISSSYATSTYNQKFKNKAAFTVDTSSSTAFMQLNSLTSEDSAVYYCVRSGNYEEYAMDYWGQGTSVTVSS
VL: DIVLTQTPSSLPVSVGEKVTMTCKSSQTLLYSNNQKNYLAWYQQKPGQSPKLLISWAFTRKSGVPDRFTGSGSGTDFTLTIGSVKAEDLAVYYCQQYSNYPWTFGGGTRLEIK
notes: Positive control IgG; also called Antibody A21
B11: Fab37 (positive control IgG) (antibody, V domains shown)
VH: EVQLVESGGGLVQPGGSLRLSCAASGFSIWWSWIHWVRQAPGKGLEWVASISPSSGWTSYADSVKGRFTISADTSKNTAYLQMNSLRAEDTAVYYCARWWSSAMDYWGQGTLVTVSS
VL: DIQMTQSPSSLSASVGDRVTITCRASQSVSSAVAWYQQKPGKAPKLLIYSASSLYSGVPSRFSGSRSGTDFTLTISSLQPEDFATYYCQQWWWWPSTFGQGTKVEIK
B12: GH2-75 IgG (antibody, V domains shown)
VH: EVQLVESGGGLVQPGGSLRLSCAASGSTIGNSGIHWVRQAPGKGLEWVAYIGPYGGYTSYADSVKGRFTISADTSKNTAYLQMNSLRAEDTAVYYCARFDDYHWDGMDYWGQGTLVTVSS
VL: DIQMTQSPSSLSASVGDRVIITCRASQDVSGYVAWYQQKPGKAPKLLIYSSGVPSRFSGSGSGTDFTLTISSLQPEDFATYYCQQYYNWPVTFGQGTKVEIK
notes: as for B1

Legend:
[1] = molecular target: T1, extracellular domain (ECD) of human epidermal growth factor receptor 2 (HER2) (Homo sapiens, UniProt P04626); assay: SPR; BIAcore T200; HER2/ECD immobilised on a CM5 chip by amine coupling to 1000 RU; IgG flowed in PBST (0.05% Tween 20) at 30 uL/min; regeneration 10 mM glycine pH 1.5; global fit to a 1:1 binding model; settings: both partners purified
T1 construct: human epidermal growth factor receptor 2 (HER2), extracellular domain; also called HER2/ECD

[2] = molecular target: T2, extracellular domain (ECD) of human epidermal growth factor receptor 2 (HER2) (Homo sapiens, UniProt P04626); assay: competition binding assay; competition of S90 scFvs with IgGs (six mouse IgGs, four positive control IgGs) for binding to HER2/ECD; procedure in the Supplemental Experimental Procedures
T2 construct: human epidermal growth factor receptor 2 (HER2), extracellular domain (domains I-IV); also called HER2/ECD

Binder	Kd [1] [nM]	koff [1] [s⁻¹]	kon [1] [M⁻¹ s⁻¹]	binding result [2]
B1	0.27	0.000104	387000	–
B2	2.47	0.00679	2.75e+06	–
B3	9.84	0.0608	6.18e+06	–
B4	31.8	0.0111	350000	–
B5	49.4	0.00163	33000	–
B6	13.4	0.0131	975000	–
B7	54.5	0.328	6.03e+06	–
B8	13.3	0.00525	395000	–
B9	11.9	10.9	9.15e+08	–
B10	–	–	–	binds
B11	–	–	–	binds
B12	0.177	0.000149	840000	–
